How the values were obtained:
[1] = target: NKG2A expressed on KHYG-1 cells (endogenous) (human) (UniProt P26715)
[2] = target: cynomolgus NKG2A/CD94 (soluble antigen of the equilibrium assay) (cynomolgus) (UniProt Q68VD2); assay: SPR equilibrium response, Langmuir isotherm; antibody on chip, soluble antigen
[3] = target: NKG2A expressed on KHYG-1 cells (endogenous) (human) (UniProt P26715); assay: competition by flow cytometry on KHYG-1 cells: antibody varied, binding of HLA-E tetramer to NKG2A read as MFI
[4] = target: NKG2A expressed on KHYG-1 cells (endogenous) (human) (UniProt P26715); assay: flow cytometry on KHYG-1 cells (endogenous NKG2A), MFI against Log [Ab] M
[5] = target: Human NKG2A & CD94 with mouse IgG2a Fc tag (AcroBiosystems) (human) (UniProt P26715); assay: SPR (Carterra), antibody on chip, soluble antigen
Chain of Human NKG2A & CD94 with mouse IgG2a Fc tag (AcroBiosystems) (human) (P26715 94-233 limits assumed, chain 1 of 2): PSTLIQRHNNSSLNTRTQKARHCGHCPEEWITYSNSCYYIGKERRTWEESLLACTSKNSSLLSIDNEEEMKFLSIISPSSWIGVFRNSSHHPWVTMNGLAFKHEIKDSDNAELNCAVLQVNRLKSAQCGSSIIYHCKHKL
Chain of Human NKG2A & CD94 with mouse IgG2a Fc tag (AcroBiosystems) (human) (Q13241 32-179 limits assumed, chain 2 of 2, further chain): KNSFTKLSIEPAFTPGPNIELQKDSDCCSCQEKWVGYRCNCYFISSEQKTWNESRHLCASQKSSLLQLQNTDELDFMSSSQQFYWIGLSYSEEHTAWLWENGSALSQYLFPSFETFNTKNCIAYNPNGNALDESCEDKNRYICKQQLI

Chain of NKG2A expressed on KHYG-1 cells (endogenous) (human) (P26715 whole entry, chain 1 of 2): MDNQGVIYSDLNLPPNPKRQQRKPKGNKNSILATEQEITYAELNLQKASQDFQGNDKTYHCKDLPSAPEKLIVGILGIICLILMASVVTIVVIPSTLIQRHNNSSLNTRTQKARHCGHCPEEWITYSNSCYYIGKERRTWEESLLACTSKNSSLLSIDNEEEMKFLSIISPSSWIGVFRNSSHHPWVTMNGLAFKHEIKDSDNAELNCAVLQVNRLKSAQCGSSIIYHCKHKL
Chain of NKG2A expressed on KHYG-1 cells (endogenous) (human) (Q13241 whole entry, chain 2 of 2, further chain): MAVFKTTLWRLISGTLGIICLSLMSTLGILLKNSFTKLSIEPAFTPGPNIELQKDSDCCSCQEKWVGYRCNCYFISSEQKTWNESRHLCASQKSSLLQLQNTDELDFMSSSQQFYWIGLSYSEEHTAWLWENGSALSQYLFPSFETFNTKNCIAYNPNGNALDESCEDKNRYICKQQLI
Chain of cynomolgus NKG2A/CD94 (soluble antigen of the equilibrium assay) (cynomolgus) (NKG2A, as listed by the source limits assumed, chain 1 of 2): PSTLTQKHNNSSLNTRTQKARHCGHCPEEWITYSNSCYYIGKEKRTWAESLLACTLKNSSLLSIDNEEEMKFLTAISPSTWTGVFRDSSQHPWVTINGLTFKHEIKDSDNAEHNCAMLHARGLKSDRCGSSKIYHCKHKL
Chain of cynomolgus NKG2A/CD94 (soluble antigen of the equilibrium assay) (cynomolgus) (CD94, as listed by the source limits assumed, chain 2 of 2): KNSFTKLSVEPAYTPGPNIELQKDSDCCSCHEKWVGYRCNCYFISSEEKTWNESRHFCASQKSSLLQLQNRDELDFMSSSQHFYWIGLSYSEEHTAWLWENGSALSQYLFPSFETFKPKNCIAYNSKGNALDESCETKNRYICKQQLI

- % double-positive events (Q2: PD-L1+ LCL721.221-hPD-L1 cells coupled to NKG2A+ KHYG-1 cells), antibody at 2 nM; monospecific control, no bridging [cont.] [1]: 0.59%
- Kd [2]: 11 nM
- IC50 (read off the curve) [3]: 0.3 nM
- EC50 (read off the curve) [4]: 0.04 nM
- Kd [5]: 0.06 nM
- koff [5]: 3e-05 s⁻¹
- kon [5]: 510000 M⁻¹ s⁻¹
B1: Benchmark anti-NKG2A antibody (IgG4) (antibody, INN chains, looked up, V domains shown)
VH: QVQLVQSGAEVKKPGASVKVSCKASGYTFTSYWMNWVRQAPGQGLEWMGRIDPYDSETHYAQKLQGRVTMTTDTSTSTAYMELRSLRSDDTAVYYCARGGYDFDVGTLYWFFDVWGQGTTVTVSS
VL: DIQMTQSPSSLSASVGDRVTITCRASENIYSYLAWYQQKPGKAPKLLIYNAKTLAEGVPSRFSGSGSGTDFTLTISSLQPEDFATYYCQHHYGTPRTFGGGTKVEIK
modifications: IgG4
